Laboratory results as given in paper PMC10255477, “The Inhibitory Effects and Cytotoxic Activities of the Stem Extract of Nepenthes miranda against Single-Stranded DNA-Binding Protein and Oral Carcinoma Cells”.

Tests used:
[1] = target: T1, KpSSB (single-stranded DNA-binding protein) (Klebsiella pneumoniae, UniProt A6TGW7 1-174); test: EMSA; up to 5000 nM protein, no shift; EMSA: 40 mM Tris-HCl pH 7.5, 50 mM NaCl, 37 °C, 60 min; DNA 30 fmol/uL; 8% native PAGE in TBE; [Protein]50 by linear interpolation; conditions: protein: recombinant, chain copies: 4
T1 sequence (A6TGW7 whole entry): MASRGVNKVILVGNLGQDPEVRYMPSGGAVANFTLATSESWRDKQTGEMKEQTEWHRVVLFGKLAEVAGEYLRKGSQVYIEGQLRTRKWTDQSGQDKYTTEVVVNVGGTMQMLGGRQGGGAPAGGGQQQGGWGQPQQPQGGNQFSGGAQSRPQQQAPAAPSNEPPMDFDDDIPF

[2] = target: T1, KpSSB (single-stranded DNA-binding …); test: EMSA; EMSA: 40 mM Tris-HCl pH 7.5, 50 mM NaCl, 37 °C, 60 min; DNA 30 fmol/uL; 8% native PAGE in TBE; [Protein]50 by linear interpolation; conditions: protein: recombinant; chain copies: 4; label: 5' biotin

| Binder | apparent K (half saturation) [2] [nM] | further results |
| --- | --- | --- |
| TTTTTTTTTTTTTTTTTTTT (ssDNA) [dT20] |  | binding result ([1]; label: 5' biotin): no binding |
| TTTTTTTTTTTTTTTTTTTTTTTTTTTTTTTTTTT (ssDNA) [dT35] | 117 ± 18 |  |
| PS4/PS3 (dsDNA) DNA 1: GGGTACCGAGCTATCCGAATTCGGG DNA 2: CCCGAATTCGGATAGCTCGGTACCC |  | binding result ([1]; blunt, 25 bp): no binding |
| TTTTTTTTTTTTTTTTTTTTTTTTTTTTTT (ssDNA) [dT30] | 155 ± 20 |  |
